Test results from paper PMC5551564 (The Journal of Experimental Medicine, 2017).

Target: T1, human IL-17RE (Thr155-Ser451), soluble form (human, UniProt Q8NFR9 155-451)
T1 sequence (looked up): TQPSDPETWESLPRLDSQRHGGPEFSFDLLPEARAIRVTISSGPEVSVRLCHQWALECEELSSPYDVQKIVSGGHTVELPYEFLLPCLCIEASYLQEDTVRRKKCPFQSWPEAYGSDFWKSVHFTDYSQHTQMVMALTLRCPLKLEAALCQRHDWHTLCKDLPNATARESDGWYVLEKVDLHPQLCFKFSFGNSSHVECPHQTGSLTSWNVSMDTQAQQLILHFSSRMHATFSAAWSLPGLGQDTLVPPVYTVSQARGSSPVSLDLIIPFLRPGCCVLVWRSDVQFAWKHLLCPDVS
Test: SEC

binding result: binds
B1: human IL-17c (residues His19-Val197), soluble form (ligand, UniProt Q9P0M4 19-197, looked up)
chain: HHDPSLRGHPHSHGTPHCYSAEELPLGQAPPHLLARGAKWGQALPVALVSSLEAASHRGRHERPSATTQCPVLRPEEVLEADTHQRSISPWRYRVDTDEDRYPQKLAFAECLCRGCIDARTGRETAALNSVRLLQSLLVLRRRPCSRDGSGLPTPGAFAFHTEFIHVPVGCTCVLPRSV
